Source: patent publication US6825001B2, “DNA molecules and protein displaying improved triazine compound degrading ability” (Regents of the University of Minnesota, priority 1997, dated 2004)
Entries after “also recorded” stand apart in the source; their conditions may differ.

B1: T7: AtzA homolog, gene SEQ ID NO:4, protein SEQ ID NO:6 (protein)
chain: SAATAALIMKASMVTLTPLFSFSLLNCTRKASRSVMSASSWLVTCGMTTQLRCRFFDGVISALRRVTHYWRHIMQTLSIQHGTLVTMDQYRRVLGDSWVHVQDGRIVALGVHAESVPPPADRVIDARGKVVLPGFINAHTHVNQILLRGGPSHGRQFYDWLFNVVYPGQKAMRPEDVAVAVRLYCAEAVRSGITTINENADSAIYPGNIEAAMAVYGEVGVRVVYARMFFDRMDGRIQGYVDALKARSPQVELCSIMEETAVAKDRITALSDQYHGTAGGRISVWPAPATTTAVTVEGMRWAQAFARDRAVMWTLHMAESDHDERIHGMSPADYMECYGLLDERLQVAHCVYFDRKDVRLLHRHNVKVASQVVSNAYLGSGVAPVPEMVERGMAVGIGTDNGNSNDSVNMIGDMKFMAHIHRAVHRDADVLTPEKILEMATIDGARSLGMDHEIGSIETGKRADLILLDLRHPQTTPHHHLAATIVFQAYGNEVDTVLIDGNVVMENRRLSFLPPERELAFLEEAQSRATAILQRANMVANPAWRSLEMTPLLHPPPLEEIAAILARLGLGGGHDLDGYRIAMNAALPSFARVESLVGEGRLRAPASRRSERPE
B2: A40: AtzA homolog, nucleic acid SEQ ID NO:17, amino acid SEQ ID NO:22 (protein)
chain: MQTLSIQHGTLVTMDQYRRVLGDSWVHVQDGRIVALGVHAKSVPPPADRVIDARGKVVLPGFINAHTHVNQILLRGGPSHGRQFYDWLFNVVYPGQKAMRPEDVAVAVRLYCAEAVRSGITTINENADSAIYPGNIEAAMAVYGEVGVRVVYARMFFDRMDGRIQGYVDALKARSPQVELCSIMEETAVAKDRITALSDQYHGTAGGRISVWPAPATTTAVTVEGMRWAQAFARDRAVMWTLHMAESDHDGRIHGMSPAEYMECYGLLDERLQVAHCVYFDRKDVRLLHRHNVKVASQVVSNAYLGSGVAPVPEMVERGMAVGIGTDNGNSNDSVNMIGDMKFMAHIHRAVHRDADVLTPEKILEMATIDGARSLGMDHEIGSIETGKRADLILLDLRHPQTTPHHHLAATIVFQAYGNEVDTVLIDGNVVMENRCLSFLPPERELAFLEGAQSRATAILQRANMVANPAWRSLEMTPLLHPPPLEEIAAILARLG
B3: A60: AtzA homolog, nucleic acid SEQ ID NO:21, amino acid SEQ ID NO:26 (protein)
chain: MQTLSIQHGTLVTMDQYRRVLGDSWVHVQDGRIVALGVHAESVPPPADRVIDARGKVVLPGFINAHTHVNQILLRGGPSHGRQFYDWLFNVVYPGQKAMRPEDVAVAVRLYCAEAVRSGITTINENADSAIYPGNIEAAMAVYGEVGVRVVYARMFFDRMDRRIQGYVDALKARSPQVELCSIMEETAVAKDRITALSDQYHGTAGGRISVWPAPATTTAVTVEGMRWAQAFARDRAVMWTLHMAESDHDERIHGMSPAEYMECYGLLDERLQVAHCVYFDRKDIRLLHRHNVKVASQAVSNAYLGSGVAPVPEMVERGMAVGIGTDNGNSNDSVNMIGDMKFMAHIHRAVHRDADVLTPEKILEMATIDGARSLGMDHEIGSIETGKRADLILLDLRHPQTTPHHHLAATIVFQAYGNEVDTVLIDGNVVMENRRLSFLPPERELAFLEEAQSRATAILQRANMVANPAWRSLEMTPLLHPPPLEEIAAILAQLG
B4: A46: AtzA homolog, nucleic acid SEQ ID NO:20, amino acid SEQ ID NO:25 (protein)
chain: MQTLSIQHGTLVTMDQYRRVLGDSWVHVQDGRIVALGVHAESVPPPADQVIDARGKVVLPGFINAHTHVNQILLRGGPSHGRQFHDWLFNVVYPGQKAMRPEDVAVAVRLYCAEAVRSGITTINENADSAIYPGNIEAAMAVYGEVGVRVVYARMFFDRMDGRIQGYVDALKARSPQVELCSIMEETAVAKDRITALSDQYHGTAGGRISVWPAPATTTAVTVEGMRWAQAFARDRAVMWTLHMAESDHDGRIHGMSPAEYMECYGLLDERLQVAHCVYFDRKDVRLLHRHNVKVASQVVSNAYLGSGVAPVPEMVERGMAVGIGTDNGNSNDSVNMIGDMKFMAHIHRAVHRDADVLTPEKILEMATIDGARSLGMDHEIGSIETGKRADLILLDLRHPQTTPHHHLAATIVFQAYGNEVDTVLIDGNVVMENRRLSFLPPERELAFLEEAQSRATAILQRANMVANPAWRSLEMTPLLHPPPLEEIAAILARLG
B5: A42: AtzA homolog, nucleic acid SEQ ID NO:18, amino acid SEQ ID NO:23 (protein)
chain: MQTLSIQHGTLVTMDQYRRVLGDSWVHVQDGRIVALGVHAESVPPPADRVIDARGKVVLPGFINAHTHVNQILLRGGPSHGRQFYDWLFNVVYPGQKAMRPEDVAVAVRLYCAEAVRSGITTINENADSAIYPGNIEAAMAVYGEVGVRVVYARMFFDRMDGRIQGYVDALKARSPQVELCSIMEETAVAKDRITALSDQYHGTAGGRISVWPAPATTTAVTVEGMRWAQAFARDRAVMWTLHMAESDHDERIHGMSPAEYMECHGLLDERLQVAHCVYFDRKDVRLLHRHNVKVASQVVSNAYLGSGVAPVPEMVERGMAMGIGTDNGNSNDSVNMIGDMKFMAHIHRAVHRDADVLTPEKILEMATIDGARSLGMDHEIGSIETGKRADLILLDLRHPQTTPHHHLAATIVFQAYGNEVDTVLIDGNVVMENRRLSFLPPERELAFLEEAQSRATAILQRANMVANPAWRSLEMTPLLHPPPLEEIAAILARLG
B6: A44: AtzA homolog, nucleic acid SEQ ID NO:19, amino acid SEQ ID NO:24 (protein)
chain: MQTLSIQHGTLVTMDQYRRVLGDSWVHVQDGRIVALGVHAESVPPPADRVIDARGKVVLPGFINAHTHVNQILLRGGPSHGRQFYDWLFNVVYPGQKAMRPEDVAVAVRLYCAEAVRSGITTINENADSAIYPGNIEAAMAVYGEVGVRVVYARMFFDRMDGRIQGYVDALKARSPQVELCSIMEETAVAKDRITALSDQYHGTAGGRISVWPAPATTTAVTVEGMRWAQAFARDRAVMWTLHMAESDHDERIHGMSPAEYMECYGLLDERLQVAHCVYFDRKDVRLLHRHNVKVASQVVSNAYLGSGVAPVPEMVERGMAVGIGTDNGNSNDSVNMIGDMKFMAHIHRAVHRDADVLTPEKILEMATIDGARSLGMDHEIGSIETGKRADLILLDLRHPQTTPHHHLAATIVFQAYGNEVDTVLIDGNVVMENRRLSFLPPERELAFLEEAQSRATAILQRANMVANPAWRSLEMTPLLHPLPLEEIAAILARLG

Legend:
wild-type AtzA protein = target: T1, wild-type AtzA protein (Pseudomonas sp., UniProt P72156); assay: substrate range of wild-type AtzA protein; assay type: biochemical, Pseudomonas sp. strain ADP
T1 construct: made in house; host or cells: E. coli
Excerpt: Enzyme Kinetics. […] HPLC analysis was done as described above.

[1] = atrazine-degrading activity of AtzA homologs compared with wild type; conditions: compared with wild-type AtzA or parent homolog
Method: Serial dilutions of the transformation reaction were plated onto LB plates containing 50 μg/ml ampicillin, the remainder of the transformation was stored in 25% glycerol and frozen at −80° C.
Environ. Microbiol., 61, 1451-1457 (1995), at a final concentration of 500 μg/ml to produce an opaque suspension of small particles in the clear agar. […] Positive colonies that most rapidly formed the largest clear zones were selected initially for further analysis. The (approximately) 40 best colonies were picked, pooled, grown in the presence of 50 μg/ml ampicillin and plasmid prepared from them.
Enzyme Kinetics. […] The reactions were stopped by boiling the reaction tubes at specific times, the addition of 500 μl acetonitrile and rapid freezing at −80° C. Thawed samples were centrifuged at 14,000 rpm for 10 minutes, the supernatants were filtered through a […] filter, and placed into crimp-seal HPLC vials. HPLC analysis was done as described above.

[2] = TERBUTHYLAZINE-degrading activity of AtzA homologs; assay type: biochemical; conditions: compared with wild-type enzyme
Method: TERBUTHYLAZINE was incorporated in solid LB medium at a final concentration of about 400-500 μg/ml to produce an opaque suspension of sample particles in the clear agar. […] HPLC analysis was performed with a Hewlett Packard HP 1090 Liquid Chromatograph system equipped with a photodiode array detector and interfaced to an HP 79994A Chemstation. TERBUTHYLAZINE and its metabolites were resolved by using an analytical C^18 reverse-phase Nova-Pak HPLC column (4 μm-diameter spherical packing, 150 by 3.9 mm; Waters Chromatography, Milford, Mass.) and an acetonitrile (ACN) gradient, in water, at a flow rate of 1.0 ml min^−1. Linear gradients of 0 to 6 min, 10 to 25% ACN; 6 to 21 min, 25 to 65% ACN; 21 to 23 min, 65 to 100% ACN; and 23 to 25 min, 100% ACN were used. Spectral data of the column eluent were acquired between 200 and 400 nm (12-nm bandwidth per channel) at a sampling frequency of 640 ms. Spectra were referenced against a signal of 500 nm.
Sample 1 is a control sample without enzyme. […] Sample 3 employed the T7 homolog (SEQ ID NO:6) and Sample 4 employed the A7 homolog (SEQ ID NO:5). Results were determined by HPLC as described above. FIG. 8(a) provides the percentage of TERBUTHYLAZINE remaining after a 15 minute exposure to homologs A7, A11, and T7. Samples 1-10 refer to the effect of homolog activity in the presence of 50 uM of: Manganese (1); Mangnesium (2), EDTA (3); cobalt (4); zinc (5); iron (6); copper (7); nickel (8); no metal (9); or no eznyme (10). FIG. 8(b) provides the relative amount of hydroxyterbuthylazine as a measure of TERBUTHYLAZINE degradation for homologs A7 (solid bar), A11 (hatched bar), or T7 (open bar) in the presence or absence of additives 1-10 (supra).

Row | Molecule | degradation of substrate by wild-type AtzA protein (in words) (wild-type AtzA protein) | atrazine degradation activity (in words) [1] | TERBUTHYLAZINE degradation activity (in words) [2]
1 | CCNc1nc(N)nc(Cl)n1 [Desisopropylatrazine, 2-chloro-4-ethylamino-6-amino-s-triazine] | acts on |  | 
2 | CCNc1nc(Cl)nc(NCC)n1 [SIMAZINE, 2-chloro-4,6-diethylamino-s-triazine] | acts on |  | 
3 | CCNc1nc(Cl)nc(NC(C)C)n1 [atrazine, 2-chloro-4-(ethylamino)-6-(isopropylamino)-1,3,5-triazine] | acts on |  | 
4 | Nc1nc(N)nc(N)n1 [MELAMINE, 2,4,6-triamino-s-triazine] | did not degrade |  | 
5 | Nc1nc(N)nc(Cl)n1 [Desethyldesisopropylatrazine, 2-chloro-4,6-diamino-s-triazine] | did not degrade |  | 
6 | CC(C)Nc1nc(N)nc(Cl)n1 [desethylatrazine, 2-chloro-4-amino-6-isopropylamino-s-triazine] | acts on |  | 
7 | CCNc1nc(Cl)nc(NC(C)(C)C)n1 [TERBUTHYLAZINE, 2-chloro-4-(ethylamino)-6-(tertiarybutyl-amino)-1,3,5-triazine] | only poorly degraded |  | 
8 | B1 |  | enhanced atrazine degradation activity | better than the wild-type enzyme; also recorded: enhanced TERBUTHYLAZINE degradation activity
9 | B2 |  | improved rate of catalytic activity | 
10 | B3 |  | improved rate of catalytic activity | capable of better degrading
11 | B4 |  | improved rate of catalytic activity | capable of better degrading
12 | B5 |  | improved rate of catalytic activity | capable of better degrading
13 | B6 |  | improved rate of catalytic activity | capable of better degrading
